Here are results for 30 sequences from the nanobody polyreactivity screen of Harvey et al. (2022).

This data set can be described thus: yeast display, Sf9 membrane polyspecificity reagent, FACS + sequencing; frameworks hold sequencing errors. The essentials: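 Polyreactivity labels are assigned by the sorting gate from which each nanobody was recovered. The gates were low and high (top ~1%), set on anti-HA fluorescence for expression and streptavidin fluorescence for reagent binding. Before sorting, galactose-induced (36–48 hours) yeast display cells were stained for 1 hour at 4 °C with 10% biotinylated, detergent-solubilized Sf9 membrane reagent.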
For “QVQLVESVGGLVQAGGSLRLSSSASGSNCVLNAIGWYRQAPGKEWELVAAITKVGSTYYADSVKGRFTISRDNAKNTVYLQMNSLIPEDTAVYYCNADPGEVLVGYDYWGQGTQVTVSS”, the “polyreactivity (PSR sort gate)” value is on record as “low polyreactivity”.
With “QVQLVESVGGLVQAGVSLRLSCAASGRIFGRYPMGWYRQAPGKERELVAAISFNGGSTSYADSVKGRFTISRDNAKNTVYLQMNSLKQEDTAVYYCAAKYRGFNYWGQGTQVTVSS” the entry was “high polyreactivity”; with “QVQLVESVGGLVQEGGSLRLSCAASGFTFAFYAMGWYRQAPGKERELVAAMTRSGGSTYYADSVKGRFTISRDNAKNTVYLQMNSLKPEDTAVYYCAAVISRWGRSTYDYWGQGTQVTVSS”, “high polyreactivity”.
As for “QVQLVESVGGVVQAGGSLRLSCAASGRIFDRNAKGWYSQAPGKERELVAAITSGGSTNYADSVKGRFTISRDNAKNTVYLQMNSLKPEDTAVYYCANDFTSRYAPPEAYDYWGQGTQVTVSS”, the entry is “low polyreactivity”.
As for “QVQLVESVGRLVQAGGSLRLSCAASGFIFIFYTMGWYRHAPGKERELVASITSSGGSTYYADSVKGRFTISRDNAKNTVYLQMNSLNPEDTAVYYCAAKKYRSPRGYWGLGTQVTVSS”, the entry is “high polyreactivity”.
Turning to “QVQLVESVGRLVQAGGSLRLSCAASGIIFSVNAMGWYRQAPGKERELVAAITYSGGSTYYADSVKGRFTISRDNAKNTVYLQMNSLKPEDTAVYYCATSYYSSGTWSEYYYWCQGTQVTVSS”, the “polyreactivity (PSR sort gate)” value is listed as “high polyreactivity”.
Take “QVQLVESVGVLVQAGGSLPLSCAASGFTFQQYAMGWYRQAPGKERELVAAISWSGGSTNYADSVKGRFTISRDNAKNTVYLQMNSMKPEDTAVYYCAAYLRYYRKEVGYSSMNYWGQGTQVTVSS”: the “polyreactivity (PSR sort gate)” value is recorded as “high polyreactivity”.
As for “QVQLVESVGVLVQAGGSLRLSSAASGGILPRYAMGWYRQAPGKERELVAVITRGGSTYYADSVKGRFTISRDNAKNTVYLQMNSLKPEDNAVYYFAKYRYQTGIFYYWGQGTQVTVSS”, the entry is “high polyreactivity”; as for “QVQLVESVRGLVQAGGSLLLSCAASGITITHYDMGWYRHSSGKESELVAAITSSGRTYYADSVKGRFSLSRDNAKNTVYLQMNSLKPEDTAVYYCDAEHSWFYGLLGYWGQGTQVTVSW”, “high polyreactivity”.
As to “QVQLVESVRGLVQAGGSLRLICDASGRTFPRYAKGWNRQAPGKEWEFVAAIRYSGDNTYYADSVKGRFTISRDNAKNTVYLQMNSLKPEDTAVYYCAARTYGNYRYSTYYYWGQGTQVTVSS”, the “polyreactivity (PSR sort gate)” value was “high polyreactivity”.
As for “QVQLVESVRGLVQAGGSLRLSCAASGRILPSNAMGWYRQAPGKERELVAGITSGGSTDYADSVKGRFTISRDNAKNTVYLQMNSLKPEDTAVYYCNKPFPYYPDGPNGYDYWGQGTQVTVSS”, the entry is “low polyreactivity”.
As for “QVQLVESVRGLVQAGGSLRVSCAASGRTFIVYAMGWYRQAPGKERELVAGITRGSTKYADSVKGRFTISRDNAKNTVYLQMNSLKPEDTAVYYCAGRSSRRGPISEGDYWGQGTQVTVSS”, the entry is “high polyreactivity”.
As for “QVQLVESVVGLVQAGGSLRLSCAASGSIFIENTMGWYRQAPGKERELVAAISGSVGRTFYADSVKGRFTISRDNAKNTVYLQMNSLKPEDTAVYYCAAVRRTSPGWVYYWGQGTRVTVSS”, the entry is “high polyreactivity”.
On to “QVQLVESVVGLVQAGVSLRLSCAASGSIFEQYAMGWYRQAPGKERELVAAISKRGTSTYYADSVKGRFTISRDNAKNTVYLQINSLKPEDNAVYDCAATNRWYYRAAASVYAFGYWGLGTQVTVSS”, for which the “polyreactivity (PSR sort gate)” value is on record as “high polyreactivity”.
As for “QVQLVESVVGLVQAVGTLRLSSAATGSTIYRNAMGWYRQPPGKEREFVAAISFRGGGTYADSVKGRFTISRDNAKNTVYLQMNSLKPEDTAVYYCAADHLSYRRRYEYWGQGTQVTVSS”, the entry is “low polyreactivity”; as for “QVQLVESVVGLVQSRVRHPLSCSASGIIFAQNAMGWYRQAPGKERELVARITSSGGGTNYADSVKGRFTISRDNAKNTVYLQMNSLKPEDTAVYYCATRWPYRSDWGQGTQVTVSS”, “high polyreactivity”; as for “QVQLVESWAGLVQAGGRLRLSCAASGSSFQVYAMGWYRQAPGKERELVAAISGDGGSTYYADSVKGRFTISRDNAKNTVYLQMNSLKPEDTAVYYCAARGLFRYTDYGYWGQGTQVTVST”, “low polyreactivity”.
As for “QVQLVESWAGLVQAGGSLRLSCAASGIIFHFNDMGWYRQAPGKERELVAAITSGGSTNYADSVKARFTISRDNAKNNVYLQMNSLKPEDTAVYYCAARRGLRLFAYSHGYWGQGSQVTVSS”, the entry is “low polyreactivity”; as for “QVQLVESWGGLFQAGGSLRLSCAASGRTFSYNAMGWYRQAPGKERELVAAMTWRGSTTYYADSVKGRFTISRDHAKNTVYLQMNSLKPEDTAVYYCADATGQPYILDYWGQGTQVTVSS”, “low polyreactivity”; as for “QVQLVESWGGLVEAGGSLRLSCAASGRTFRSYAMVWYRQAPWKERELVAAISDGGSTNYADSVKGRFTISRDNAKNTVYLQMNSLKPEDTAVYYCAAVIFFAVFRFYYWGQGTQVTVSS”, “low polyreactivity”.
Consider “QVQLVESWGGLVHAGGSLRLSCAASGSIFDWYAMGWYRQAPGTERELVAAINEGGGSTYYADSVKGRFTISRDNAKNSVYLQMNSLKPEDTAVYYCAAGDYYLQDNYWGQGTQVTVSS”, for which the “polyreactivity (PSR sort gate)” value is on record as “low polyreactivity”.
As for “QVQLVESWGGLVHAGGSLRLSCAASGSTFAGYAMGWYRKATGTERELVATITYSGGSTYYADSVKGRFTISRDNAKNTVYLQMNSLKTEDTAVYYCAKKASYWWGYEYWGQGTQVTVSS”, the entry is “low polyreactivity”.
For “QVQLVESWGGLVQAGCSLRLSCAASGRTFRSYAMGWYRQATGKERELVAAISRNGGRTYYADSVKGRFTMSRDNAKYTVYSQMNSLKPEDTAVYYCAAVGDFDVYYWGQATQVTVSS”, the “polyreactivity (PSR sort gate)” value is “high polyreactivity”.
Consider “QVQLVESWGGLVQAGGRLRLSCAASGRIFWRYAMGWYRQAPGKERELVAAISGRGASTYYADSVKGRFTISRDNAKNTVYLQMNSLKPEDTAVYYCAASLRYRYRYYASDYGYWGQGTQVTVSS”, for which the “polyreactivity (PSR sort gate)” value is given as “high polyreactivity”.
Consider “QVQLVESWGGLVQAGGSLRLICAASGRIFYPYAMGWYRQAPGKERELVASITSGGGSYYADSVKGRFTISRDNAKNTVYLQMNSLKPEDTAVYYCAAPYITPYGTYVFSSVYWGQGTQVTVSS”, for which the “polyreactivity (PSR sort gate)” value is on record as “low polyreactivity”.
With “QVQLVESWGGLVQAGGSLRLSCAASGFIFSSYGMGWYRQAPGKERELVADISGGGSTNYADSVKGRFTISRDNAKNTVYLQMISLNPEDTAVYYCNAQLIRSAAYDYWGQGTQVTVSS” the entry was “low polyreactivity”.
With “QVQLVESWGGLVQAGGSLRLSCAASGFTFDYNGMGWYRQAPWKERELVAGIRWSGGSTYYADSVKGRFTISRDNAKNTVSLQMNSLKPEDTAFYYCAADTLPAEYEYDYWGQGTQVTVSS” the entry was “low polyreactivity”; with “QVQLVESWGGLVQAGGSLRLSCAASGFTFVSYAMGWYRQAPGKERELVAAISKRGGSTSYADSVKGRFTISRDNAKNTVYLQMNSLKPEDTAVYYCYNRSYAWSPHVDYWGQGTQVTVSS”, “high polyreactivity”.
With “QVQLVESWGGLVQAGGSLRLSCAASGGTFRKNTMGWYRQAPGKERELVAAITRRADRTYYADSVKGRFTISRDNAKHTVYLQMNSLKPEDTAVYYCNAPPPPTKVGGYDYWGQGTQVTVSS” the entry was “high polyreactivity”; with “QVQLVESWGGLVQAGGSLRLSCAASGLTFVKNAMGWYRQAPGKERELVAAITRTGGSTYYADSVKVRFTISRDNAKNTFYLQMNSLKPEDPAVYYCASRTPSPRRTKTAVDYWGQGTQVTVSS”, “high polyreactivity”.
